Source: article PMC3033571 (2011)

Tests used:
[1] = molecular target: T1, CaV1.2 IQ domain IQ domain (Homo sapiens, UniProt Q13936, Ca2+); test: ITC, 25°C
[2] = molecular target: T1, CaV1.2 IQ domain IQ domain; test: ITC, 15°C
[3] = molecular target: T1, CaV1.2 IQ domain IQ domain; test: competition ITC

T1 sequence (Q13936 1665-1685): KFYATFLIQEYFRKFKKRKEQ

Row | Binder | Kd [1] [nM] | Kd [2] [nM] | Kd [3] [nM]
1 | CaBP1 C-lobe C-lobe (protein) ADMIGVKELRDAFREFDTNGDGEISTSELREAMRKLLGHQVGHRDIEEIIRDVDLNGDGRVDFEEFVRMMSR | 15 | 10.5 | –
2 | CaBP1 16-167 (protein) ARLQRVLGLGSRREPRSLPAGGPAPRRTAPPPPGHASAGPAAMSSHIAKSESKTSLLKAAAAAASGGSRAPRHGPARDPGLPSRRLPGSCPATPQSSGDPSSRRPLCRPAPREEGARGSQRVLPQAHCRPREALPAAASRPSPSSPLPPARG | – | – | 0.288
3 | CaBP1 N-lobe N-lobe (protein) not shown | – | 1100 | –
